Results as given in patent publication US20060121535.

What was measured:
[1] = molecular target: T1, Abl peptide NH2-EAIYAAPFAKKK-COOH (SEQ. ID. NO: 4), acrylic-labeled, photocleavable
T1 chain: EAIYAAPFAKKK

[2] = molecular target: GST-Crkl (full length), P46109
[3] = molecular target: T2, GST-Crkl (intra SH3), P46109
T2 chain: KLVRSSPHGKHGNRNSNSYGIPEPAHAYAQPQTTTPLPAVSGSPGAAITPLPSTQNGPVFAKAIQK

GST-Crkl (SH3), P46109, sequence (P46109 120-303): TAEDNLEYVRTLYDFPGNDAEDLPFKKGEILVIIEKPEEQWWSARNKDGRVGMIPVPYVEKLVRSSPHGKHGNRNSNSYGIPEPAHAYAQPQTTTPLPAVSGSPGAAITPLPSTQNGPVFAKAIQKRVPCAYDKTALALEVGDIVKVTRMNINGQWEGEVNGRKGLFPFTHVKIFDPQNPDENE
GST-Crkl (full length), P46109, sequence (P46109 whole entry): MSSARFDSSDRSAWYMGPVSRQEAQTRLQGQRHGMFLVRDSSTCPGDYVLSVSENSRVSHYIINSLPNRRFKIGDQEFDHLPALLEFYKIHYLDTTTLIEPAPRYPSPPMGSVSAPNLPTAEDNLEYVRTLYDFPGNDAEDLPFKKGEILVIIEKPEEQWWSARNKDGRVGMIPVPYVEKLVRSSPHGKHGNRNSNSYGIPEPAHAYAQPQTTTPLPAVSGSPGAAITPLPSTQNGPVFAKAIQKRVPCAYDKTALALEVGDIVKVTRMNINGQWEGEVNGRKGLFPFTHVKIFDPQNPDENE

B1: v-Abl tyrosine kinase (Calbiochem / EMD Biosciences) (protein)
chain: YITPVNSLEKHSWYHGPVSRNAAEYLLSSGINGSFLVRESESSPGQRSISLRYEGRVYHYRINTASDGKLYVSSESRFNTLAELVHHHSTVADGLITTLHYPAPKRNKPTIYGVSPNYDKWEMERTDITMKHKLGGGQYGEVYEGVWKKYSLTVAVKTLKEDTMEVEEFLKEAAVMKEIKHPNLVQLLGVCTREPPFYIITEFMTYGNLLDYLRECNRQEVSAVVLLYMATQISSAMEYLEKKNFIHRDLAARNCLVGENHLVKVADFGLSRLMTGDTYTAHAGAKFPIKWTAPESLAYNKFSIKSDVWAFGVLLWEIATYGMSPYPGIDLSQVYELLEKDYRMERPEGCPEKVYELMRACWQWNPSDRPSFAEIHQAFETMFQESSISD
extent of phosphorylation of the immobilized peptide, MALDI mass spectrometry [1]: the extent of phosphorylation was estimated to be approximately 90% | tyrosine phosphorylation of bead-immobilized substrate, anti-phosphotyrosine Western blot (GST-Crkl (SH3), P46109): v-Abl displays tyrosine kinase activity toward GST-Crkl (SH3) and GST-Crkl (intra SH3) in the absence of imatinib | tyrosine phosphorylation of surface spots, ECL film (Example 9) (GST-Crkl (SH3), P46109): Qualitative detection of phosphorylated tyrosine for the 833 and 1660 ng spots of the two larger forms of GST-Crkl can be seen | tyrosine phosphorylation on protein array, ECL, 2 h reaction (GST-Crkl (SH3), P46109): v-Abl demonstrates a slight preference for the GST-Crkl (SH3) substrate relative to the GST-Crkl (intra SH3) substrate | tyrosine phosphorylation of bead-immobilized substrate, anti-phosphotyrosine Western blot [2]: GST-Crkl (full-length) is not phosphorylated by v-Abl | tyrosine phosphorylation of surface spots, ECL film (Example 9) [2]: Qualitative detection of phosphorylated tyrosine for the 833 and 1660 ng spots of the two larger forms of GST-Crkl can be seen | tyrosine phosphorylation on protein array, ECL [2]: Phosphorylation of GST-Crkl (full-length) is minimal (data not shown) | tyrosine phosphorylation of bead-immobilized substrate, anti-phosphotyrosine Western blot [3]: v-Abl displays tyrosine kinase activity toward GST-Crkl (SH3) and GST-Crkl (intra SH3) in the absence of imatinib | tyrosine phosphorylation on protein array, ECL, 2 h reaction [3]: v-Abl demonstrates a slight preference for the GST-Crkl (SH3) substrate relative to the GST-Crkl (intra SH3) substrate
